Assay in all cases: EMSA
The subject of series [1] is MeCP2 MBD R133C R133C (Homo sapiens). Conditions: same buffer.
In series [2] the target is MeCP2 MBD (hMeCP2[90-181]) wild type (Homo sapiens) (UniProt P51608).
Series [3] deals with MeCP2 MBD S134C S134C (Homo sapiens). Conditions: same buffer.
[4] abbreviates: 5hmC in CpG of one strand, 5fC in the other.
The mark [5] stands for this setting: 5mC in CpG of one strand, 5hmC in the other.
Setting [6] is: unmodified C in CpG of one strand, 5hmC in the other.
[7] abbreviates: 5mC in CpG of one strand, 5fC in the other.

Chain of MeCP2 MBD (hMeCP2[90-181]) wild type (Homo sapiens) (P51608 90-181): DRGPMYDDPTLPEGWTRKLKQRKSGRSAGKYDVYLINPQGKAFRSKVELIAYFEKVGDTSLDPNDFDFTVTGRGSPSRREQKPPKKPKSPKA

As for 24-mer hmC/fC CpG duplex, the Kd was 1630 nM in series [1] (setting [4]); 540 nM in series [2] (5hmC in CpG of one strand, 5fC in the other, same buffer); 4600 nM in series [3] (setting [4]).

For the substance 24-mer hmC/hmC CpG duplex, the Kd turned out to be 2560 nM in series [1] (5hmC in CpG on both strands); 970 nM in series [2] (5hmC in CpG on both strands, same buffer); 7600 nM in series [3] (5hmC in CpG on both strands).

24-mer mC/hmC CpG duplex: the Kd came out at 660 nM in series [1] (setting [5]); 224 nM in series [2] (5mC in CpG of one strand, 5hmC in the other, same buffer); 1150 nM in series [3] (setting [5]).

Turning to 24-mer mC/mC CpG duplex, the Kd in series [1] (5mC in CpG on both strands) stood at 118 nM; in series [2] (5mC in CpG on both strands, room temperature, 50 ng/uL poly(dA)poly(dT), 20 mM HEPES pH 7.3 buffer) it was 27 nM; in series [3] (5mC in CpG on both strands) it was 117 nM.

Turning to 24-mer C/hmC CpG duplex, the equilibrium dissociation constant (Kd) stood at 8100 nM in series [1] (setting [6]); 1080 nM in series [2] (unmodified C in CpG of one strand, 5hmC in the other, same buffer); 7600 nM in series [3] (setting [6]).

As for 24-mer mC/fC CpG duplex, the Kd amounted to 540 nM in series [1] (setting [7]); 197 nM in series [2] (5mC in CpG of one strand, 5fC in the other, same buffer); 790 nM in series [3] (setting [7]).

The values above are taken from US20230043577.
